Data on 16 molecules can be found in patent US20260116991A1.

Positions count from the first letter of the chain named.

For experiment [1], the target named is monkey GPC3-His protein (monkey). Description: ELISA, monkey GPC3-His coated; antibody 0.0008 nM.
Experiment [2] has the same target. Description: ELISA, monkey GPC3-His coated; antibody 0.004 nM. On the technique in general: ELISA stands for enzyme-linked immunosorbent assay.
For experiment [3], the target named is monkey GPC3 on HEK293T-monkey GPC3 cells (monkey). Description: FACS on HEK293T-monkey GPC3 cells.
Experiment [4] deals with monkey GPC3-His protein (monkey). As to the kind of experiment: ELISA, monkey GPC3-His coated; antibody 13.33 nM.
Experiment [5] has the same target. As to the kind of experiment: ELISA, monkey GPC3-His coated; antibody 0.53 nM.
For experiment [6] the target is unchanged. Description: ELISA, monkey GPC3-His coated; antibody 0.11 nM.
Experiment [7] shares this target. Description: ELISA, monkey GPC3-His coated; antibody 2.67 nM.
Experiment [8] shares this target. As to the kind of experiment: ELISA, monkey GPC3-His coated; antibody 66.66 nM.
Experiment [9] shares this target. Description: ELISA, monkey GPC3-His coated; antibody 0.02 nM.

B1: hAb005LH1L1 (antibody, human IgG1, V domains shown)
VH: EVQLVQSGAEVKKPGASVKVSCKASGYTFTDYEMHWVRQAPGQGLEWMGAIDPETGNTAYIQKFKGRVTMTTDKSTSTAYMELRSLRSDDTAVYYCTRFYSYSHWGQGTTVTVSS
VL: DIVMTQTPLSLPVTPGEPASISCRSSQSLVHSNGNTYLHWYLQKPGQSPQLLIYKVSNRFSGVPDRFSGSGSGTDFTLKISRVEAEDVGVYYCSQNTHVPPTFGGGTKVEIK
For orientation: EC50 means the concentration at which the effect is half-maximal. As to B1, the OD450 nm in experiment [1] amounted to 0.069; in [2], 0.103; in experiment [4] it was 1.22; in experiment [5], 1.16; in experiment [6], 0.94; in [7] it was 1.21. Besides, the figures for the OD450 nm in experiment [8] and in [9] were 1.1 and 0.594, respectively. The EC50 in experiment [3] is 2.17 nM. The molecule also registered a Max MFI in experiment [3] of 23400 MFI.

B2: hAb003LH1L1a (antibody, human IgG1, V domains shown)
VH: EVQLVQSGAEVKKPGSSVKVSCKASGYTFSDYEMHWVRQAPGQGLEWMGTIDPETGNTAYTQKFMDRVTITADKSTSTAYMELSSLRSEDTAVYYCTRGYSFTYWGQGTLVTVSS
VL: DIVMTQTPLSLPVTPGEPASISCRSSQNIVHSDGNTYLQWYLQKPGQSPQLLIFKVSNRFSGVPDRFSGSGSGTDFTLKISRVEAEDVGVYYCFQGSHVPFTFGQGTKLEIK
Regarding B2, the OD450 nm came out at 0.087 in experiment [1]; 0.148 in experiment [2]; 2.35 in experiment [4]; 2.2 in [5]; 1.48 in experiment [6]; 2.29 in [7]. The OD450 nm came to 2.42 in experiment [8] and 0.483 in experiment [9]. Also, in experiment [3], the concentration giving a half-maximal response (EC50) amounted to 4.77 nM. The same molecule displayed a Max MFI in experiment [3] of 22600 MFI.

B3: hAb007LH1L1 (antibody, human IgG1, V domains shown)
VH: B2 VH with T61N, M65K, D66G, G99P, F102L
VL: B2 VL with N28S, I29F, D33N, N35D, F54Y, F101Y
On to B3, for which the OD450 nm in experiment [1] amounted to 0.085; in experiment [2], 0.122; in experiment [4], 2.54; in [5] it was 2.43; in [6], 1.46; in experiment [7], 2.6. Also, the OD450 nm in experiment [8] came to 2.56; in [9], 0.491.

B4: hAb003LH3L1 (antibody, human IgG1, V domains shown)
VH: B2 VH with T28R, S30T, I70L
VL: B2 VL with D33N
As to B4, the OD450 nm in [1] was found to be 0.16; in experiment [2] it was 0.357; in experiment [4], 2.36; in [5] it was 2.22; in experiment [6], 1.85; in experiment [7], 2.36. Moreover, the OD450 nm in experiment [8] is 2.53; in experiment [9], 0.963. Moreover, the EC50 in [3] worked out at 1.58 nM. In experiment [3], this molecule yielded a Max MFI of 30900 MFI.

B5: hAb007LH1L1a (antibody, human IgG1, V domains shown)
VH: B2 VH with T61N, M65K, D66G, G99P, F102L
VL: B2 VL with N28S, I29F, N35D, F54Y, F101Y
In the case of B5, the OD450 nm was determined as 0.067 in [1]; 0.097 in [2]; 2.44 in experiment [4]; 1.57 in [5]; 0.605 in experiment [6]; 2.21 in experiment [7]. Besides, the OD450 nm in experiment [8] amounted to 2.36; in experiment [9] it was 0.197.

B6: hAb003LH2L1 (antibody, human IgG1, V domains shown)
VH: B2 VH with T28R, S30T
VL: B2 VL with D33N
For the molecule B6, the OD450 nm in experiment [1] stood at 0.175; in [2], 0.413; in [4] it was 2.44; in experiment [5] it was 2.58; in experiment [6], 2.16; in [7] it was 2.57. The OD450 nm came out at 2.51 in experiment [8] and 1.22 in [9]. Further, the EC50 in [3] turned out to be 1.32 nM. This molecule also came in with a Max MFI in [3] of 29600 MFI.

B7: hAb005LH1L1a (antibody, human IgG1, V domains shown)
VH: B1 VH
VL: B1 VL with N33D
For the molecule B7, the OD450 nm was determined as 0.06 in experiment [1]; 0.045 in experiment [2]; 0.195 in experiment [4]; 0.053 in [5]; 0.066 in experiment [6]; 0.111 in [7]. The OD450 nm in experiment [8] was 0.578; in experiment [9], 0.039. Besides, the EC50 in [3] was found to be 71.6 nM. In [3], this molecule had a Max MFI of 2910 MFI.

B8: hAb006LH2L1b (antibody, human IgG1, V domains shown)
VH: B2 VH with S30T, M34I, T50A, E54K, T61N, D66G, G99Y, Y100F, T103A
VL: B2 VL with N28T, I29F, D33N, G34A, F54Y, F101Y
Take B8: the OD450 nm in experiment [1] was 0.128; in [2] it was 0.34; in experiment [4], 2.46; in experiment [5], 2.57; in experiment [6] it was 2.1; in experiment [7], 2.7. The OD450 nm in experiment [8] came out at 2.69; in experiment [9], 0.924.

B9: hAb007LH3L1a (antibody, human IgG1, V domains shown)
VH: B2 VH with S30T, T61N, M65K, D66G, I70L, G99P, F102L
VL: B2 VL with N28S, I29F, N35D, F54Y, F101Y
For B9, the OD450 nm in experiment [1] worked out at 0.069; in [2], 0.079; in [4], 2.37; in experiment [5] it was 1.08; in experiment [6], 0.337; in experiment [7], 1.89. The OD450 nm in experiment [8] was found to be 2.34; in experiment [9], 0.135.

B10: hAb007LH2L1a (antibody, human IgG1, V domains shown)
VH: B2 VH with S30T, T61N, M65K, D66G, G99P, F102L
VL: B2 VL with N28S, I29F, N35D, F54Y, F101Y
Regarding B10, the OD450 nm in experiment [1] came out at 0.065; in experiment [2], 0.093; in [4], 2.39; in experiment [5], 1.41; in [6], 0.468; in [7] it was 2.1. The OD450 nm in experiment [8] came out at 2.45; in experiment [9], 0.182.

B11: hAb006LH2L1a (antibody, human IgG1, V domains shown)
VH: B2 VH with S30T, M34I, T50A, E54K, T61N, D66G, G99Y, Y100F, T103A
VL: B2 VL with N28T, I29F, F54Y, F101Y
In the case of B11, the OD450 nm in experiment [1] was 0.047; in [2] it was 0.055; in experiment [4], 1.84; in [5] it was 0.549; in experiment [6] it was 0.137; in experiment [7] it was 1.39. Moreover, the OD450 nm in experiment [8] came out at 2.06; in experiment [9], 0.065.

B12: hAb003LH3L1a (antibody, human IgG1, V domains shown)
VH: B2 VH with T28R, S30T, I70L
VL: B2 VL
On to B12, for which the OD450 nm in experiment [1] came out at 0.089; in experiment [2], 0.202; in experiment [4], 2.3; in experiment [5], 2.21; in [6], 1.59; in experiment [7] it was 2.38. Besides, the OD450 nm was found to be 2.39 in experiment [8] and 0.633 in experiment [9]. For the same molecule, the EC50 in [3] amounted to 3.27 nM. This molecule displayed a Max MFI in [3] of 24500 MFI.

B13: hAb003LH2L1a (antibody, human IgG1, V domains shown)
VH: B2 VH with T28R, S30T
VL: B2 VL
For the molecule B13, the OD450 nm in [1] amounted to 0.15; in experiment [2], 0.16; in [4], 2.34; in experiment [5], 2.12; in experiment [6], 1.37; in experiment [7], 2.17. Also, the OD450 nm in [8] is 2.23; in experiment [9] it was 0.475. The molecule also showed an EC50 in experiment [3] of 3.09 nM. The Max MFI in experiment [3] is 23200 MFI.

B14: hAb006LH3L1a (antibody, human IgG1, V domains shown)
VH: B2 VH with S30T, M34I, T50A, E54K, T61N, D66G, I70L, G99Y, Y100F, T103A
VL: B2 VL with N28T, I29F, F54Y, F101Y
Turning to B14, the OD450 nm in experiment [1] turned out to be 0.044; in [2] it was 0.057; in experiment [4] it was 2.09; in experiment [5], 1.05; in experiment [6], 0.226; in experiment [7], 1.95. Moreover, the OD450 nm stood at 2.18 in [8] and 0.08 in experiment [9].

B15: hAb007LH1L1b (antibody, human IgG1, V domains shown)
VH: B2 VH with T61N, M65K, D66G, G99P, F102L
VL: B2 VL with N28S, I29F, D33N, G34R, N35D, F54Y, F101Y
Take B15: the OD450 nm in experiment [1] turned out to be 0.071; in [2] it was 0.128; in experiment [4], 2.37; in experiment [5], 1.97; in [6] it was 0.958; in [7] it was 2.39. Moreover, the results for the OD450 nm in [8] and in [9] were 2.54 and 0.305, respectively.

B16: hAb003LH3L1b (antibody, human IgG1, V domains shown)
VH: B2 VH with T28R, S30T, I70L
VL: B2 VL with D33N, G34R
For the molecule B16, the OD450 nm was 0.165 in experiment [1]; 0.432 in [2]; 2.4 in [4]; 2.5 in [5]; 2.1 in experiment [6]; 2.4 in experiment [7]. For the same molecule, the values for the OD450 nm in [8] and in experiment [9] were 2.53 and 1.17, respectively. Besides, in experiment [3], the EC50 was determined as 1.28 nM. This molecule returned a Max MFI in experiment [3] of 31300 MFI.
